Test results as given in article PMC3927129 (Science (New York, N.Y.), 2011).

Molecular target: the molecule itself
Assay: native MS

B1: subunit K of the Enterococcus hirae rotary ATPase (K10 membrane ring) (natural protein)
chain: MMDYLITQNGGMVFAVLAMATATIFSGIGSAKGVGMTGEAAAALTTSQPEKFGQALILQLLPGTQGLYGFVIAFLIFINLGSDMSVVQGLNFLGASLPIAFTGLFSGIAQGKVAAAGIQILAKKPEHATKGIIFAAMVETYAILGFVISFLLVLNA
B1 was tested, and the “stoichiometry N” value was 10.
